Experiment: label from the status in PepcDB records

Sequence | protein production
MILLCFPGSEQGIGMHQFEFLGQLVLIGALAIVNILVFQKIRIPPVIGLIFTGIMLGPTGFHVIRNSGLISTLAEMGVVLLLFTIGLEFSADDLKKLRKIVLFGGTAQILLTGLVIAMFSYWLMDAIGKSVGSKEALVLGFSFSVSSTALCLKILSDRGELGFDHGKIALGILIFQDMAIVPLMFGFSFLTRGSSMPLESSFEEIALLLLFAIGMFGGFRLLMPKIVRIITELHAGEVLVLGALVLCFGAAWLASLIGLSLALGAFMAGMVIASTDGSHRISRTIDPFREAMTSIFFVSVGLLLDVNMIELPWLIAIALVVLVVKGLIMTGILMALGFSLRVSLMSGMVLAQIGEFSFVLAGTAKDAGLLDQHMFQSMLAVIVVTMIVTPALISAAPKFAAQVAPALGFMPLASKPEPKQPARAAAGPIVCRGEIHAAIIGFGLIGRNIAAVMNATNLNYTVLDTDRKTVKTMRRQGEPLFYGDCTERKSLLRIGVDHSRAVVICIPEIDAAIQCIRLVREINPGAFIIVRSRSLESTNRFYRAGADAAVTELFETSIQMFSELLKHFRVEPETILAQQEIIRREGGNIFRELVTETDGSGDDPAKKSQNGAGFVTSET | failed
MYPDLVHLGGADKYFEEILEIVNKIKLFGDFSNEEVRYLCSYMQCYAAPRDCQLLTEGDPGDYLLLILTGEVNVIKDIPNKGIQTIAKVGAGAIIGEMSMIDGMPRSASCVASLPTDFAVLSRDALYQLLANMPKLGNKVLIRLLQLLTARFRESYDRILPKTLGELI | not failed
MKTSLRLEDGTKNSLQIPIDLIIEIFLRLSVNSIARCRCVSKQWASTLSRPYFTELFLTRSLARPKLLFAYRKGSDYLFLSSPQLQNPDDDHKKSSPVVVNYHMHHILTLGSGNMSWRTIQCCIPHRSFDGGICIDGLIYYYAGVNNNDIVIVCFDVRSEEFRFIIGALHHGSLINYNGKLSLYLPSTVYSRFNGVIRSIKLWVLEDAKRQEWSEHTYILPAMHDIMKTTDLRCVGMTQTKEFVFWSIKGMRFYVFYYNIERNTIKKVEMQGMEAFKESNVYTFLDHVEDVKLMQFF | failed
MSQFPLISVMTFLPLLGVVLLFFVPKQSHSVHRMLALLVSLVTFVVSIPLVTGFQSNADFQFVEKMPWIAAGPFQMNYHVAIDGISLWLVLLTTFIMPIAILSTWTAVEEKVKEYMICLLLLEVGMLGAFVSLDLFLFYIFWEVMLIPMYFIIGIWGGKNKIYAAVKFFIYTMVGSMLMLVALVTLYFKAGAGDFNVLRFYEVTLDPATQVWMFLAFALAFAIKVPMFPLHTWLPDAHTEAPTAGSVILAAVLLKMGTYGFVRFAMPLFPDATDKFTPLIATLSVIGIIYAALVAMVQEDVKKLVAYSSVAHLGYVMLGVFALNLQGLSGGMLQMLNHGVSTGALFLIVGFIYERRHTRLITDFGGLAKQMPVFATIFMIVTLSSIGLPGTNGFVGEFLVLLGAFESELRWYAVIGTSGVILAAVYMLWMFQRVMFGELTNPKNQTLCDLNAREVGIMLPLLVLIFVMGVYPTPFIEKMSPSLEKLIVHVKTKQQGAVAQVETVPAAPQVMPAAAVVPAEHK | failed
MKFRRHTKAIRSLAGSLISHASAFAPALFAAIIAAIVVWVATNWRLERSLADERSVVAGELATISSRLQTNLNSNVKLLQGLAAGIAVDPAMGQNRFSKLAAQILQPDSQLRSFAAAPDMVVQWVYPETGNEKAIGLDYRKNEKQRAAAMLARNTHNIVLTGPVELVQGGTAFVVRCPVYIDDGNSQIFWGLLSGIIDIPRLYRDSGLGSTDLEIAISTTPEPNSPKQVFFGGLETFEKKPVVASVDMTYGRWSLAALPRHGWGQNNGIGTFELYASLLALCVVAPIVWVGFLTKSRQKTIEKLRLHKSKLVRARQRLEHLSLHDALTGLPNRRFVDQMISQPPRPDPQDRLILIHIDLDRFKEINDTKGHAGGDMVLQTTASRLADLTGPNDVAARIGGDEFVFASWSTDPEPKAAELARQIVDALQQTIFIDGAGYVVGASVGVAWETESARDRDLGQLLLNADLALYEAKKAGRGRAAVFTEELRSAAIHAKELADEFNQALERDELVAFFQPQFNANTLDIAGVEALARWDHPRKGLLGPNAFLDAAEKLGRSGDMDRLILQKALFELTRWDGLGMHIPRVSVNISARRLAQANLLAELSALPAAKDRLCFELLETISFDELQPALNEVIPAIKALGIEIEIDDFGTEHASIVSLLRFEPRRLKIDREIIKPIIASPSQRRLVSSIIEIGRSQNIDIVAEGVETMEHAKILKDLGCHLLQGYALARPMSSDQLIEFCRMKGTGTAKASR | failed
MSLSDQEFDEKYLELSEELKQSEKHKGTLDQGASQFLNAIEFVLRVYRQTEVIYVYAHLKNDQDTGNTDYQALYARASSLFSKVSEAVSWFEPEILQLSDDQIWQYFKEEPKLEVYRHYIQQIVDNRAHVLSAEQESLLAGAGEIFDASSDTFAVLNNADLVFPTIEGENGEIVQLSHGVYGQLLESTDRRVREAAFKGLYSVYEQFRNTFASTLGTHIKGHNFKAKVRNYSSAREASLSNNHIPESVYDTLVDVVNKHLPLLHRYMELRKRLLEVEKLHMYDLYTPVLGEAPITFTYEEAKEKALEALKPMGEEYMAIVEKAFSERWIDVVENKGKRSGAYSSGSYDTNPYILLNWHDTLDQLFTLVHEMGHSVHSYFTRSNQPYVYGDYSIFLAEIASTTNENILTEYLLETEKDPRVRAYVLNHYLDGFKGTVFRQTQFAEFEHFMHTEDEKGVPLTSEYLSDSYGKLNAKYYGPAVEEDPEIKFEWSRIPHFYYNYYVFQYSTGFSAASALAKKILNQEPEALENYLAYLKAGNSDYPVEVMKKAGVDMTQAAYIEDAMSMFEQRLNELEELIDREGHHHHHH | not failed
MSVSVRSYLSPTLVLLAFDWPDAQRRDDFLGFAIKRTPGFWSADGKTRAATSWLPNRLTFDGPAAHTQGDAPTDQAPIQKFMWWDARIDPPDRGRAFRYDVYPVVGTPASLRVLEADAGGCTVTLPAHVEGGVGTWFNRAVVSSQAFAKQVRALRLADGAAPSPDAARRLRTWLANDLEETFGLMLGADARRAVSAVYHLTDPLWAIPAFDAFGRAHGADALAIVYDAHETKRGSGEPPLPSPNQAAVEQLTGVATLAPRDKTRIMHDKFIVAGDEAGPARVLTGSANFTTEGITEQANVLHTFESAALAGLYNACARALASNPCVAETARLAPGWSEPVEVGTARVRVSFSPEPRGARTQIDTIVDAIRGARHSVVFCLFMPTDAALRDACFAAGDRGLMMFGLVNAISARGAQQADADRRDGKTLDAARLANLELYHRSRSNRDVIDAAYFSPATVPAGFEAELRLFPGEAPPPYPPVVVHHKFIVIDAEGANPIVYSGSANMSANSEHYNDENLLEIRDARVAGIYLAEFLRLYEHYRARALAIASRRGNGSGAGGAAGPHGGLALQPDSRWAKKYFVDASPEEKARIALAAPVAAR | failed
QLAEVEVKKFKQMTEAIGPSTIRDLAVAGPEMQVKLLQSLGLKSTLITDGSTPINLFNTAFGLLGMGPEGQPLGRRVASGPSPGEGISPQSAQAPQAPGDNHVVPVLR | failed
MANAENNSVSTRSSELYREISQMDDEIMKLVEQINQPIGRPDFGAIEEARKKLTDKRMKLEELSKRMKEVIKEMEETPKR | failed
MTNDQIKKAKNGTYYFRANLGYDVKGKKIQKYRSGFKTKKEAREEYSRLLLMNPDDLNENKDKMMFEYYINEIFLPWYKTQVKLRTYENRIPTIQKHFPYFYKMAVSDIEPINVQDWQLKMTKNLKPSYVRAVQGLFSVAMDRAIVLGITTTNPSKIIGNVKKVKPKVEFWTKEEFEKVLSLIYKEDYYQNFLFISLWFLFMTGMRIGEATAIQWEDIDFETGVVSITKTLYYKSQIDYKFVEPKTKASVRHIVLDKVTLSYLADWREVQQNVVKTNFVMSYNGIPTQKHTIAHAIDRFSKMAGIHRIKIHALRHSHASLLISMGENPLIIKERLGHEDIETTLGTYGHLYPNSNFEVASKLNGIISFQPAEQNLDSSPKNQFTVNYRQNKQPNSAIKVQ | failed
MSSPVISPETKTGKKILLAAPRGYCAGVDRAVETVERALEEYGAPIYVRKEIVHNRYVVDTLAEKGAIFVNEASEAPEGANMVFSAHGVSPMVHEEAAAKNIKAIDAACPLVTKVHKEVQRFDKQGFHILFIGHEGHEEVEGTMGHSVEKTHLVDGVAGIATLPEFLNDEPNLIWLSQTTLSVDETMEIVRELKVKFPQLQDPPSDDICYATQNRQVAVKAIAERCELMIVVGSRNSSNSVRLVEVAKQNGADNAYLVDYAREIDPAWFEGVETIGISSGASVPEILVQGVIERLAEFGYDDVEEVTSAAEKIVFALPRVLRHKN | not failed
MNLYSLLLSLITGCFLLAQGGTSFSSPVETEKSAVTAQSILEKADEIRFPQDSFQVNVAIRTAAPDHAEDLYRYQVLSKGNENSIVMITEPASERGQAILMKGRDLWVFMPSVSQPIRLSLSQRLTGQVANGDIARANFTGDYHPQLLRNESIDDEDYYVLELTGIDRSVTYQKVLLWVNQSNFRPYKAEFYSVSGRLLKTSRYENFDNILGEMRPTRIIMEDALKSGEVSVLDYSDMKLRDLPDKIFTKDYLKRLE | failed
VEASFCLGDNWQFLYVNDATCRMTEYSREQLLSMNLQDIDVDFALHDWEEIRQKNNYTFKTRYRSQSGRIFLVEMSLTFLEDQERRFSCVFVREKS | failed
MPQITIIVPVYNAERTLERCVRSIQAQTVVNWELLLIDDGSEDYSSKLCDEYAIQDSRIRVFHQVNGGASSARNVGLEYTKGEWVVFCDSDDWVDSNWLELFKNQIDNGTELIVQGFIPHGNLWQSRTGINFHGNVKTGILKLQEENILGFMCTKMYKREIIEQCGLRFDTELVLREDELFMLQYAEYISTIQCMEEGAYHYDMPDFSTKYGNIDLFNMFLKIYVVLKRIFSGEDNLLLQNYENDLTQSLFHSFVMRHDDRCKKLENYRKEVGKRVLGVKSLSQFSKYILAYVPSFQVAYLLLEAKAKIVKSMQLEHHHHHH | not failed
MSELEEDFAKILMLKEERIKELEKRLSEKEEEIQELKRKLHKCQSVLPVPSTHIGPRTTRAQGISAEPQTYRSFHDLRQAFRKFTKSERSKDLIKEAILDNDFMKNLELSQIQEIVDCMYPVEYGKDSCIIKEGDVGSLVYVMEDGKVEVTKEGVKLCTMGPGKVFGELAILYNCTRTATVKTLVNVKLWAIDRQCFQTIMMRTGL | failed
SESQDIKALQKELEQFAKLLKQKRITLGYTQADVGLTLGVLFGKVFSQTTICRFEALQLSFKNMCKLRPLLQKWVEEADNNENLQEICKAETLVQARKRKRTSIENRVRGNLENLFLQCPKPTLQQISHIAQQLGLEKDVVRVWFCNRRQKGKRSSSDYAQ | not failed
MSDVSTQSPKVGFVSLGCPKALVDSEQIITQLRAEGYEISGTYGGADLVVVNTCGFIDEAVQESLDAIGEALAENGKVIVTGCLGAKKDAAGQDIITSVHPKVLAVTGPHALGEVMEAVHTHLPKPHDPFIDLVPPQGIKLTPKHYAYLKISEGCNHRCSFCIIPSMRGDLVSRPVAEVMLEAENLLKAGVKELLVISQDTSAYGVDVKFRTGFWNGRPLKTRMTELVGALGELAAQYGAWVRLHYVYPYPSVDEVMPLMAEGKVLPYLDVPLQHAHPEVLKRMKRPANAEKTLDRIRAWREVCPELTIRSTFIAGFPGETEEEFQTLLDFIAEAELDRVGCFAYSPVEGATANDLPGALPDEVREERRARFMEVAERVSARRLQRKVGKTLRVLVDEVNQDGGIGRSSADAPEIDGLVYIAPPSKPYKRYKAGDFVSVKITGADGHDLWGEVLEHHHHHH | failed
